In paper PMC5736220:

Molecular target: protocadherin-15 EC1+2 R113G, His-tagged (mouse), Q99PJ1
Test: thermal scanning (thermal stability shift assay with SYPRO orange); pcdh15 fixed at 0.1 mg/mL (~4 μM), cdh23 0.1 to 0.5 mg/mL (~4 to 20 μM; cdh23:pcdh15 1:1 to 5:1); SEC buffer (20 mM Tris-HCl pH 7.5, 150 mM KCl, 50 mM NaCl, 2 mM CaCl2); 10 to 95°C in 0.2°C steps, 5 s equilibration; read-out: shift of the Tm of pcdh15 (ΔTm)
Settings: remark: other sources report otherwise

B1: cadherin-23 EC1+2, wild type, His-tagged, Q99PF4 24-228 (domain or fragment)
chain: QVNRLPFFTNHFFDTYLLISEDTPVGSSVTQLLARDMDNDPLVFGVSGEEASRFFAVEPDTGVVWLRQPLDRETKSEFTVEFSVSDHQGVITRKVNIQVGDVNDNAPTFHNQPYSVRIPENTPVGTPIFIVNATDPDLGAGGSVLYSFQPPSPFFAIDSARGIVTVIQELDYEVTQAYQLTVNATDQDKTRPLSTLANLAIIITD
ΔTm of pcdh15 at cdh23:pcdh15 1:1: -0.6 °C
ΔTm of pcdh15 at cdh23:pcdh15 2:1: 0.2 °C
ΔTm of pcdh15 at cdh23:pcdh15 3:1: 1 °C
ΔTm of pcdh15 at cdh23:pcdh15 4:1: 1.3 °C
ΔTm of pcdh15 at cdh23:pcdh15 5:1: 1.5 °C
